B1: WW domain-binding protein 4, residues 8 to 43; numbered along this chain, O75554 (parent)
chain: QPKKFCDYCKCWIADNRPSVEFHERGKNHKENVAKR
B2: Gamma-crystallin C, residues 4 to 79; numbered along this chain, P07315 (parent)
chain: ITFYEDRAFQGRSYETTTDCPNLQPYFSRCNSIRVESGCWMLYERPNYQGQQYLLRRGEYPDYQQWMGLSDSIRSC

Variants of: B1
Assay: abundance fitness (aPCA) (normalised: wild type 0, dead -1); higher = more abundant; growth selection in yeast, the domain comes from the species named
Conditions: Homo sapiens

Abundance fitness, by site and new letter:
P2: Y -0.176, A 0.007, K 0.294, M 0.615, S 0.115, Q 0.179, L 0.045, T 0.109, W -0.692, V 0.06, R 0.047, G 0.136, I 0.015, D 0.365, C -0.839
D7: M -0.241, L -0.209, Q -0.113, Y -0.286, E 0.007, T 0.154, K -0.272, V -0.6, W -0.649, G -0.173, P -0.529, S -0.131
I13: P -0.488, N -0.308, R -0.532, Q -0.529, D -0.171, C -0.427, A -0.531, Y 0.334, K -0.853, G -0.449, S -0.473, V -0.089, E -0.226, T -0.261, L -0.236, H -0.368, M 0.209
F5: W -1.06, V -0.565, A -0.261, G -0.786, I -0.379, E -0.356, Q -0.328, R -0.465, N -0.174, D -0.533, Y -0.087, K -0.502, M -0.085, S -0.468, P -0.551
Y8: L -0.26, E 0.048, P 0.343, C -0.269, K -0.309, W -0.118, R -0.12, M 0.054, V -0.249, T -0.07, G -0.224, S -0.448, D 0.129
Q1: K -0.879, A -0.931, E -0.941, R -0.979, W -1.47, I 0.404, S -0.651, H -0.275, C -1.36, V -0.257, T -0.509, G -0.548, M -0.242, L -0.654, Y -0.422
C6: S -0.615, A -0.471, V -0.756, W -1, F -0.653, K -0.216, E -0.546, G -1.07, N -0.919, L -0.862, R -0.691, T -0.521, M -0.654, P -0.466
A14: E -0.048, C -0.169, Q -0.264, L -0.558, G -0.286, M -0.602, R -0.381, K -0.251, D -0.2, P -0.19
C9: L -1.13, V -1.28, Q -0.701, T -0.635, M -1.23, W -1.2, G -0.525, A -0.787, S -0.116, K -0.983, E -0.603, D -0.541
C11: K -0.066, A 0.052, V 0.066, I 0.002, P -0.475, D 0.144, S 0.101, F -0.417, T 0.087, H -0.335, L -0.045, W -0.589, M 0.084, Q 0.139, G -0.059
K10: D 0.061, V -0.551, R -0.088, S -0.151, C -0.325, M -0.34, W -0.748, P -0.482, Q -0.146, E -0.134, F -0.409, N -0.149, A -0.126, Y 0.002
K4: F -0.177, M 0.13, C -0.453, L -0.366, V -0.507, A -0.291, N -0.226, D -0.573, S -0.212, G -0.497, W -1.03, T -0.022, Q -0.245, E -0.355, R -0.374
W12: C -0.437, P 0.188, D -0.219, Q 0.077, G -0.331, E -0.238, H 0.339, I 0.139, L -0.087, S -0.261, T -0.066, F -0.165, K -0.557, R -0.537, M 0.075, A -0.209
K3: W -0.997, L -0.193, S -0.102, C -1.59, D -0.025, P -0.119, V -0.279, Y 0.045, F -0.881, G -0.051, Q 0.082, H -0.569, E 0.174, T -0.275, R 0.013, A -0.194, M 0.074

Variants of: B2
Assay: as above
Conditions: Homo sapiens

Abundance fitness: each site, then its substitutions
S70: I 0.09, N -0.021, M -0.132, C 0.101, G -0.007, P 0.082, R -0.064, A 0.02, Q -0.077, V 0.075, W 0.048, D -0.074, L -0.047, T -0.072, H -0.181, Y 0.047, K -0.114, F -0.053
C76: Y -0.719, G 0.116, Q -0.592, P -0.984, F -0.539, V 0.061, S 0.051, A 0.056, W -0.545, R -0.904, H -0.574, M -0.192, E -0.795, I 0.074, T -0.002, D -0.834
L69: S -0.153, Y -0.001, M -0.163, P -0.07, N -0.045, K -0.104, R -0.021, I -0.23, G -0.028, Q 0.08, W 0.098, E 0.017, T 0.047, H -0.045, F 0.147, V 0.02
D71: L 0.021, W -0.02, M -0.133, I -0.106, T -0.059, R -0.011, V -0.004, S -0.056, E 0.027, C -0.017, N -0.007, P -0.135, Q -0.121, F -0.132, K 0.094, Y -0.027, H -0.092
I73: C 0.047, Q -0.798, R -0.854, D -0.861, E -0.655, K -0.801, T 0.053, F -0.083, S -0.39, M 0.106, H -0.693, V 0.085, W 0.124, P 0.071, Y -0.207, L 0.025, A 0.055
R74: V 0.108, P -0.389, K -0.013, T 0.12, L 0.023, M 0.007, N 0.107, Y 0.105, I 0.02, C 0.037, Q -0.001, G 0.022, A 0.039, D 0.104, W 0.119, H -0.001, E -0.021
S72: V -0.012, Y 0.01, F 0.119, A -0.136, R 0.01, P -0.025, H -0.172, T -0.145, C -0.082, I 0.007, G 0.022, K 0.058, M 0.019, D -0.21, L -0.052
S75: Q -0.327, W -0.875, F -0.979, I -0.186, P -0.66, K -0.59, T -0.828, L 0.044, A -0.054, M -0.675, H -0.88, Y -0.599, G -0.069, V -0.226, E -0.793, R -0.479, C 0.044, D -0.836

Reference: the Human Domainome abundance scans (Beltran et al. 2025)
